Measured values from patent publication US20250282887A1 (Amgen, published 2025).

Assays:
human MAGEA2 = biological target: T1, human MAGEA2 (human, UniProt P43356 1-314); assay: IHC, FFPE CHO cells transfected with human MAGEA2
T1 construct: whole, on cells; FFPE cell pellets
Protocol: (§1) FFPE samples were sectioned at 4 μm and mounted on positive charged glass slides. After mounting, paraffin sections were air-dried at room temperature. FFPE TMA samples were received as freshly sectioned and mounted on glass slides. The fully automated IHC assay was performed on a Discovery Ultra Stainer (Ventana Medical Systems, Tucson, AZ) using Ventana Anti-Rabbit HQ (cat #760-4815), Ventana Anti-HQ HRP (cat #760-4820), and Ventana Antibody Diluent with Casein (cat #760-219) (Ventana Medical Systems, Tucson, AZ). The slides were baked on the Discovery Ultra Stainer at 60° C. for 8 minutes, de-paraffinized with Ventana Discovery wash (cat #950-510) for 3 cycles (8 minutes each) at 69° C., and underwent cell conditioning (target retrieval) at 95° C. for 16 minutes (for cell arrays) or 32 minutes (tissues or TMAs) in CC1 buffer (cat #950-500). Following this, slides were incubated with Background Sniper (cat #BS966M, Biocare Medical, Pacheco, CA) in a Ventana Option Prep kit (cat #771-751) for 28 minutes, incubated with CM inhibitor (a part of the Ventana DAB kit cat #760-159) for 12 minutes, and incubated for 1 h at RT with MAGE-B2 antibody diluted with Ventana diluent with Casein in a Ventana Prep kit (cat #770-001) (working concentration at 0.1 μg/ml for cell pellet, or 1-5 ug/ml for tissues) or with a matched concentration of isotype control Rabbit IgG1 antibody. Following this, slides were incubated with the Ventana Anti-Rabbit HQ (cat #760-4815) for 28 minutes at RT, Ventana Anti-HQ HRP (cat #760-4820) for 28 minutes at RT, and signals detected with Ventana DAB chromogen kit (cat #760-159) for 5 minutes at RT. Slides were counterstained with Ventana Hematoxylin II (cat #5266726001) for 8 minutes and Ventana Bluing reagent (cat #526676900) for 4 minutes. Slides were coverslipped and digitized using an Aperio AT2 scanner (Leica Biosystems Inc, Buffalo Grove, IL).

[1] = biological target: T2, Human MAGEB2 (Melanoma-associated antigen B2) (human, UniProt O15479 1-319); assay: IHC on FFPE KMM-1 cells (endogenous MAGEB2)
T2 construct: Intracellular antigen detected by IHC in FFPE material: CHO cells transfected with human MAGEB2 (mCherry vector with Myc/DDK tags, or ORF without tags)
T2 sequence: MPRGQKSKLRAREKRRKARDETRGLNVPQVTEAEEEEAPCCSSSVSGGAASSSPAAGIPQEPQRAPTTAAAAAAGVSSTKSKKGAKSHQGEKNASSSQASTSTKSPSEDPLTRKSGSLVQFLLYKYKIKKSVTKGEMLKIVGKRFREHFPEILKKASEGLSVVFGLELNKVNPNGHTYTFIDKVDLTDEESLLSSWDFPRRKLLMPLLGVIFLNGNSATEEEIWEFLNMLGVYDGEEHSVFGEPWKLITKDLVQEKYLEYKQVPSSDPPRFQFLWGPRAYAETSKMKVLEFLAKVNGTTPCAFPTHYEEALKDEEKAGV
Protocol: as §1

human MAGEA11 = biological target: T3, human MAGEA11 (human, UniProt P43364 1-429); assay: IHC, FFPE CHO cells transfected with human MAGEA11
T3 construct: whole, on cells; Transfected into CHO cells with Myc/DDK tags
T3 sequence (looked up): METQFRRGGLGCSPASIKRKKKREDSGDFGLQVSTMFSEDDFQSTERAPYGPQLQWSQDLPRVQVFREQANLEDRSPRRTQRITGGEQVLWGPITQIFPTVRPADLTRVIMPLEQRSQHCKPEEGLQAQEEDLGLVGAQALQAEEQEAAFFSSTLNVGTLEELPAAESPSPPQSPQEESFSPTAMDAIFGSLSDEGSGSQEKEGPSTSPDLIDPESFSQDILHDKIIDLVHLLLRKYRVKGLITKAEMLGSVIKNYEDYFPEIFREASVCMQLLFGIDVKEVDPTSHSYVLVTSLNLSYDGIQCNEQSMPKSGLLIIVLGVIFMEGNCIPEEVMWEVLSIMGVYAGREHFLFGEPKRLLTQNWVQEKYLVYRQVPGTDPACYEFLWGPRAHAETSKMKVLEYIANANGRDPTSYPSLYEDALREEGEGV
Protocol: as §1

human MAGEB17 = biological target: T4, human MAGEB17 (human, UniProt A8MXT2 1-336); assay: IHC, FFPE CHO cells transfected with human MAGEB17
T4 construct: whole, on cells; FFPE cell pellets; also called MAGE-17
T4 sequence (looked up): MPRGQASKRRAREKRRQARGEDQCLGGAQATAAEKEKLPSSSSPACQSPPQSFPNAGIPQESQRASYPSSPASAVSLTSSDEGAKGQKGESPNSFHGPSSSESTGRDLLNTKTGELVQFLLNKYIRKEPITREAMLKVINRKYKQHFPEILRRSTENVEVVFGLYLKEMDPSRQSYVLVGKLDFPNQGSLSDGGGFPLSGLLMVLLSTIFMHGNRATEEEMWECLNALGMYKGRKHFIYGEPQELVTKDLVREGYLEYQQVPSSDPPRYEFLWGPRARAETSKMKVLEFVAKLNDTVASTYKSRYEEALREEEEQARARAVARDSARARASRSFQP
Protocol: as §1

[2] = biological target: T2, Human MAGEB2 (Melanoma-associated …); assay: IHC on FFPE UACC-257 cells (endogenous MAGEB2)
Protocol: as §1

[3] = biological target: T2, Human MAGEB2 (Melanoma-associated …); assay: IHC on FFPE VMRC-LCD cells (endogenous MAGEB2)
Protocol: as §1

T1 sequence (P43356 whole entry): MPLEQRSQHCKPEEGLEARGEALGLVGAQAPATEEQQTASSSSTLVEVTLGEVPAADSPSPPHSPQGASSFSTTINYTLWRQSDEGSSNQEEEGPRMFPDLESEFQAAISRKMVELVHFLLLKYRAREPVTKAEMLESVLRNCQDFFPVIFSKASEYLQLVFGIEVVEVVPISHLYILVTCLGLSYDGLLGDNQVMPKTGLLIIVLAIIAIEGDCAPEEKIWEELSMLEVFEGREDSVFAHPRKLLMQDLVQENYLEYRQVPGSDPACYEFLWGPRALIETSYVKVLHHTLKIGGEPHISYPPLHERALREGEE

B1: 1I14 (antibody, V domains shown)
VH: QSVEESGGRLVTPGTPLTLTCTISGFSLSSYAMSWVRQAPGKGLEWIGSIGGGGSAVYASWAKGRFTISKTSTTVDLRITSPTTEDTAMYFCGRGFYSIDLWGPGTLVTVSS
VL: DVVMTQTPASVEATVGGTVTIKCQSSQSVYDNNALAWYQQNAGQRPRLLIYGASTLASGVPSRFSASGSGTEFTLTISDLECADAATYYCQCTYYVSSYQNDFGGGTEVVVKG
notes: also called MAGE-B2 (1i14)
With B1 the binding result (human MAGEA2) was “no binding (tested: 0.1 µg/ml)”, the “IHC % Frequency” value [1] was 70% and the “IHC Intensity” value [1] was 1. For the same binder, the binding result (human MAGEA11) was “no binding (tested: 0.1 µg/ml)”, the binding result (human MAGEB17) was “no binding (tested: 0.1 µg/ml)” and the “IHC % Frequency” value [2] was 0%. For the same binder, the “IHC % Frequency” value [3] was 0% and the “IHC Intensity” value [3] was 0.

B2: 1C3 (antibody, V domains shown)
VH: QSLEESGGGLVQPEGSLTLTCTAFGVTLTNYYICWVRQAPGKGLEWVGCIDNANGRTYYASWAKGRFTISKTSSTTGTLQMTSLTAADTATYFCARSLATPLWGPGTLVTVSS
VL: DIVMTQTPSSVEAAVGGTVTIKCQASQNISSYLAWYQQKPGQPPKLLIYRASTLASGVPSRFKGSGSGTQFTLTISDLECADAATYYCQSYDDSRSSNFFYAFGGGTEVVVKG
notes: also called MAGE-B2 (IC3); anti-MAGEB2 antibody 1C3
B2 was tested, and the binding result (human MAGEA2) was “no binding (tested: 0.1 µg/ml)”, the “IHC % Frequency” value [1] was 70% and the “IHC Intensity” value [1] was 1. For the same binder, the binding result (human MAGEA11) was “no binding (tested: 0.1 µg/ml)”, the binding result (human MAGEB17) was “no binding (tested: 0.1 µg/ml)” and the “IHC % Frequency” value [2] was 0%. For the same binder, the “IHC % Frequency” value [3] was 0% and the “IHC Intensity” value [3] was 0.

B3: 4G17 (antibody, IgG1, V domains shown)
VH: QSLEESGGGLVQPEGSLTLTCTASGVTLSNYYICWVRQAPGKGLEWIGCIDNVNGRTYYASWAKGRFTISKTSSTTGTLQMTSLTAADTATYFCARSLATPLWGPGTLVTVSS
VL: DIVMTQTPASVEAAVGGTVTIKCQASQNIDSYLAWYQQKPGQPPKLLIYRASTLASGVPSRFKGSGSGTEFTLTISDLECADAATYYCQSYDDSRSSSFFYGFGGGTEVVVK
notes: Rabbit monoclonal IgG1; Tested as supernatant and as small batch purified antibody; also called MAGE-B2 (4G17); anti-MAGEB2 antibody 4G17
In the case of B3, the binding result (human MAGEA2) is reported as “no binding (tested: 0.1 µg/ml)”, the “IHC % Frequency” value [1] is reported as 70% and the “IHC Intensity” value [1] is reported as 2. The binding result (human MAGEA11) was “no binding (tested: 0.1 µg/ml)”, the binding result (human MAGEB17) was “no binding (tested: 0.1 µg/ml)” and the “IHC % Frequency” value [2] was 0%. For the same binder, the “IHC Intensity” value [2] was 0, the “IHC % Frequency” value [3] was 0% and the “IHC Intensity” value [3] was 0.

B4: 1J15 (antibody, IgG1, V domains shown)
VH: QSLEESGGGLVQPEGSLTLTCTAFGFTLNNYYICWVRQAPGKGLEWIACIDNANGRTYYASWAKGRFTISKTSSTTVTLQMTSLTAADTATYFCARSLSTPLWGPGTLVTVSS
VL: DIVMTQTPASVEAAVGGTVTIKCQASQSISSYLSWYQQKPGQPPKLLIYRASTLASGVPSRFRGSGSGTQFTLTISDLECADAATYYCQSYDDSSDNNFFYGFGGGTEVVVR
notes: Rabbit monoclonal IgG1; Tested as supernatant and as small batch purified antibody; also called MAGE-B2 (IJ15); anti-MAGEB2 antibody 1J15
For B4, the binding result (human MAGEA2) was “no binding (tested: 0.1 µg/ml)”, the “IHC % Frequency” value [1] was 70% and the binding result (human MAGEA11) was “no binding (tested: 0.1 µg/ml)”. The binding result (human MAGEB17) was “no binding (tested: 0.1 µg/ml)”, the “IHC % Frequency” value [2] was 0% and the “IHC Intensity” value [2] was 0. For the same binder, the “IHC % Frequency” value [3] was 0% and the “IHC Intensity” value [3] was 0.
